Test results reported in patent publication US20190309034A1 (Boehringer Ingelheim, published 2019).

What was measured:
[1] = biological target: T1, Recombinant soluble 60-mer human BAFF (His-HuBAFF 134-285) (human, UniProt Q9Y275 134-285); assay: cell-based or functional assay
[2] = biological target: T2, Human membrane-bound BAFF (mbBAFF) (human, UniProt Q9Y275 1-285); assay: cell-based or functional assay
[3] = biological target: T3, Recombinant soluble trimeric human BAFF (furin-cleaved human BAFF 134-285) (human, UniProt Q9Y275 134-285); assay: cell-based or functional assay
[4] = biological target: T2, Human membrane-bound BAFF (mbBAFF); assay: cell-based or functional assay; remark: listed apart in the source
[5] = biological target: T1, Recombinant soluble 60-mer human BAFF …; assay: cell-based or functional assay; remark: listed apart in the source
[6] = biological target: T3, Recombinant soluble trimeric human BAFF …; assay: cell-based or functional assay; remark: listed apart in the source
[7] = biological target: T3, Recombinant soluble trimeric human BAFF …; assay: SPR, antibody captured on Protein A/G, soluble trimeric BAFF flowed over, 1:1 Langmuir global fit, apparent affinity (at detection limit)
Description: (§1) Apparent binding affinities were evaluated using surface plasmon resonance where the antibodies were captured at different surface densities on a Protein A/G surface. Soluble trimeric BAFF at different concentrations were flowed over the captured antibody. Clinical reference antibodies (Reference 1 comprising SEQ ID NOS: 98 and 116) and Reference 2 comprising SEQ ID NOS: 99 and 117) were used as comparators.

[8] = biological target: T3, Recombinant soluble trimeric human BAFF …; assay: cell-based or functional assay; remark: listed apart in the source
[9] = biological target: T3, Recombinant soluble trimeric human BAFF …; assay: SPR, antibody captured on Protein A/G, soluble trimeric BAFF flowed over, 1:1 Langmuir global fit, apparent affinity
Description: as §1

Row | Binder | Soluble 60-mer huBAFF (4 pM) Neutralization IC50 [1] [pM] | Soluble 60-mer huBAFF (4 pM) Neutralization IC90 [1] [pM] | Potent mbBAFF Neutralization IC50 [2] [pM] | Potent mbBAFF Neutralization IC90 [2] [pM] | Soluble trimeric huBAFF (50 pM) Neutralization IC90 [3] [pM] | IC50 (neutralisation of mbBAFF activation of human BAFFR, fixed mbBAFF-CHO mixed with luciferase reporter BAFFR-CHO cells) [4] [pM] | Soluble 60-mer huBAFF (4.2 pM) Neutralization IC90 [5] [pM] | Soluble trimeric huBAFF (52 pM) Neutralization IC90 [6] [pM] | Kd [7] [pM] | IC50 (neutralisation of soluble trimeric huBAFF activation of human BAFFR, luciferase reporter CHO cells) [8] [pM] | IC90 (neutralisation of soluble trimeric huBAFF activation of human BAFFR, luciferase reporter CHO cells) [8] [pM] | Kd [9] [pM]
1 | Reference 1 (antibody, human IgG4 S228P, kappa, V domains shown, Comparator anti-BAFF antibody) VH: QVQLQQWGAGLLKPSETLSLTCAVYGGSFSGYYWSWIRQPPGKGLEWIGEINHSGSTNYNPSLKSRVTISVDTSKNQFSLKLSSVTAADTAVYYCARGYYDILTGYYYYFDYWGQGTLVTVSS VL: EIVLTQSPATLSLSPGERATLSCRASQSVSRYLAWYQQKPGQAPRLLIYDASNRATGIPARFSGSGSGTDSTLTISSLEPEDFAVYYCQQRSNWPRTFGQGTKVEIKR | 40 | 102 | 177 | 1050 | 290 | 210 | 21 | 290 | < 10 | 120 | – | –
2 | 235F5B9 (antibody, V domains shown, Mouse lead antibody (hybridoma)) VH: QVQLQQPGAELVKPGASVKLSCKASGYSFSTFFIHWIQQRPGRGLEWIGRIDPNSGATKYNEKFESKATLTVDKPSSTAYMHLSSLTSEDSAVYYCARGEDLLIRTDALDYWGQGTSVTVSS VL: DIVMTQSQKIMSTTVGDRVSITCKASQNAGIDVAWFQQKPRQSPKLLIFSKSNRYTGVPDRFAGSGSGTDFTLTIYNVQSEDLADYFCLQYRSYPRTFGGGTKLEIK | – | – | – | – | – | 180 | 2.2 | 107 | < 10 | 110 | 210 | –
3 | Reference 2 (antibody, human IgG1, lambda, V domains shown, Comparator anti-BAFF antibody) VH: QVQLQQSGAEVKKPGSSVRVSCKASGGTFNNNAINWVRQAPGQGLEWMGGIIPMFGTAKYSQNFQGRVAITADESTGTASMELSSLRSEDTAVYYCARSRDLLLFPHHALSPWGRGTMVTVSS VL: SSELTQDPAVSVALGQTVRVTCQGDSLRSYYASWYQQKPGQAPVLVIYGKNNRPSGIPDRFSGSSSGNTASLTITGAQAEDEADYYCSSRDSSGNHWVFGGGTELTVLG | 38300 | 198000 | 2180 | 151000 | 1000 | 8600 | – | 1000 | – | 220 | – | 22.2
4 | 13J018-1A4 (antibody, V domains shown, Mouse lead antibody (hybridoma)) VH: QVQLQQSGPEVVRPGASVKISCKAPDHIFSIHWMQWVRQRPGPGLEWIGEIFPGSGTTDYNEKFKGKATVTVDRGSRSAYMQFNSLTSEDSAVYFCASGAFDYWGQGTTLTVSS VL: DIQMTQSPSSLSASLGERVSLTCRASQDIGNRLNWLQQEPDGTIKRLIYATSSLDSGVPKRFSGSRSGSDYSLTISSLESEDFVDYYCLQYASSPFTFGTGTKLEIK | – | – | – | – | – | 290 | 23 | 305 | < 10 | 110 | 350 | –
